Test results from patent US20100279937A1, “Method of Inhibiting Angiogenesis, Tumorigenesis and Cathepsin Activity” (priority 2006, published 2010).
Values belong to the molecule of their own block, whether it stands above or below them.

Columns and labels:
U87MG cells [1] = test: U87MG growth in semi-solid (soft) agar; assay type: cell-based, human; conditions: Alamar Blue
Experimental: […] Approximately 15,000 cells±treatment were resuspended in 150 μl medium containing 0.3% agar, and seeded onto a well of a 24-well plate previously layered with 250 μl 0.6% agar. The solidified cell layer was covered with 50 μl DME±treatment which was replaced every three days over a 21 day period. Phase contrast images (6 fields/well) were captured using a digital video camera (Olympus U-CMT) and analyzed with Northern Eclipse v.5.0 software. Color images were transformed to grey scale, thresholded, and then converted to binary images. Number and area of colonies per field were calculated. In order to measure cell viability, at the end of the experiment, 40 μl alamar blue was added to each well and fluorescence readings were performed every 10 min for a period of 180 min. Experiments were repeated 2-3 times in triplicates.

U87MG cells [2] = conditions: disclosed in copending PCT/CA2006/000250; cited from earlier work
[3] = tested on: human brain endothelial cells (HBEC); test: Confocal microscopy of AF647-CIBP-4 in HBEC; assay type: cell-based; conditions: 100 nM AF647 conjugate, 90 min
Experimental: 80 μl of 1 mM Alexa Fluor 647-NHS in DMSO was added to 0.4 ml of recombinant CIBP-4 (0.2 mg/ml) in 100 mM carbonate pH 8.4, and sample was incubated overnight at room temperature. The reaction was stopped with 150 μl of 200 mM ethanolamine pH 8.0. To remove free dye, sample was diluted with 4.5 ml of water and loaded onto 1 ml Co^+2-Talon Metal Affinity column equilibrated with PBS. The column was exhaustively washed with PBS and CIBP-4 eluted with 2 ml of 1 M imidazole in PBS. To remove imidazole from AF647-CIBP-4 conjugate, the sample was concentrated to approximately 200 μl on Biomax (M.W. cut-off 5,000), diluted to original volume with PBS and concentrated again. That process of concentration/dilution was repeated three times. Final volume 0.5 ml (0.14 mg/ml). Recovery 86%.
HBEC (100,000 cell/well in a 24-well format plate) and U87MG (50,000) were respectively seeded on human fibronectin- (40 μg/ml) or poly-L-lysine-coated cover slips (Bellco Biotechnology) in 400 μl HBEC/U87MG media and grown until reached 80% confluence. Cells were then washed twice with DME and incubated in DME for 30 min at 37° C. […] Confocal images of […] were sequentially obtained using 488, 647 and 540-590 nm excitation laser lines to detect DiOC5(3) (510-525 nm emission) and Alexa 647 (670-810 nm emission) and Magic Red™ Cathepsin B (>610 nm) fluorescence.

U87MG cells on CAM = test: Experimental glioma assay: U87MG tumors on chick chorioallantoic membrane (CAM); assay type: in vivo, chicken (Gallus gallus)
Experimental: Fertilized chicken (Gallus gallus) eggs were obtained from the Canadian Food Inspection Agency and placed into an egg incubator at 37° C. and 67-70% humidity (day 0). At day 3, windows were cut in the egg shell and covered with surgical tape (Durapore,) until day 10. Then, a sterile Nunc Thermanox (Nunc Inc., Naperville, Ill.) plastic ring was placed onto the CAM, the delimited surface gently lacerated with a scalpel blade and a pellet of 10^6 U87MG cells deposited into the center of the ring. […] Digital photos were taken using a Canon 40D camera. At day 17, tumors were carefully removed from the CAM and weighted.

[4] = tested on: human brain endothelial cells (HBEC); test: Capillary-like tube (CLT) formation by HBEC on Matrigel (in vitro angiogenesis); assay type: cell-based; conditions: 20 nM
Experimental: Human brain endothelial cells (HBEC) were obtained from small intracortical microvessels and capillaries (20-112 μm) harvested from temporal cortex from patients treated surgically for idiopathic epilepsy. Tissues were obtained with approval from the Institutional Research Ethics Committee. HBEC were separated from smooth muscle cells with cloning rings and grown at 37° C. in HBEC media containing Earle's salts, 25 mM 4-(2-hydroxyethyl)-1-piperazineethanesulfonic acid (HEPES), 4.35 g/L sodium bicarbonate, and 3 mM L-glutamine, 10% FBS, 5% human serum, 20% of media conditioned by murine melanoma cells (mouse melanoma, Cloudman S91, clone M-3, melanin-producing cells), 5 μg/ml insulin, […], 5 ng/ml selenium, and 10 μg/ml endothelial cell growth supplement. HBEC cultures were routinely characterized morphologically and biochemically.
(§1) In vitro angiogenesis was assessed by endothelial tube formation in growth factor reduced Matrigel™ (BD Bioscience, Bedford, Mass.). 24-well plates were coated with 300 μl of unpolymerized Matrigel™ (5-7 mg prot/ml) and allowed to polymerize for 90 min at 37° C. HBEC (40,000 cells) were suspended in 500 μl of either DME, serum-free U87MG CM (collected as described in Cell Cultures) or growth factors (VEGF, IGF-1, bFGF) in the absence or presence of 20 nM of either full length recombinant IGFBP-1 (IBP1, produced at BRI-NRC), IGFBP-2 (IBP2, produced at BRI-NRC and purchased from R&D systems, Minneapolis), IGFBP-3 (IBP3, from R&D systems), IGFBP-4 (IBP4, produced at BRI-NRC), IGFBP-5 (IBP5, produced at BRI-NRC and purchased from R&D systems) and IGFBP-6 (IBP6, from R&D systems) or the C-terminal protein fragments of IGFP-1 (CIBP1), IGFBP-2 (CIBP2), IGFBP-4 (CIBP4), IGFBP-5 (CIBP5) and IGFBP-6 (CIBP6), all produced at BRI-NRC). The ability of a synthetic membrane permeable cathepsin B inhibitor (CA074-ME, EMD Biosciences, Canada) to inhibit angiogenes and cathepsin B activity was also studied. CLT formation was analyzed after 24 h using an Olympus 1×50 microscope. Phase contrast images were captured with a digital video camera (Olympus U-CMT) and analyzed using Northern Eclipse v.5.0 software. Experiments were repeated three times. In order to determine the levels of cathepsin B activity in each experimental condition, at the end of the experiment, 6 μl of 26× Magic Red™ Cathepsin B reagent (Immunochemistry Technologies, LLC) were added to all the wells and maintained at 37° C. in dark for two hours. Cells were washed twice with HBSS and intracellular fluorescence quantification (530/25 nm excitation and 645/40 nm emission) was performed using a cytofluorimeter plate reader (Bio-Tek FL600).

[5] = tested on: human brain endothelial cells (HBEC); conditions: disclosed in copending PCT/CA2006/000250; cited from earlier work
cathepsin B = target: T1, cathepsin B (Homo sapiens, UniProt P07858); test: Intracellular cathepsin B activity in HBEC seeded on Matrigel (Magic Red); assay type: cell-based; conditions: 20 nM
T1 construct: Levels of cathepsin B activity were also measured in U87MG CM alone or pre-incubated; endogenous in cells; host or cells: U87MG (ATCC), 3-day serum-free conditioned medium
Experimental: as §1
To determine the ability of these angiogenic factors to stimulate cathepsin B activity in HBEC, a membrane permeable cathepsin B target sequence peptide (Arginine-Arginine) linked to an amide substituted fluorophore, cresyl violet (Magic Red™, Immunochemistry Technologies, LLC) was used. Following enzyme cleavage at the arginine amide linkage site, the cresyl violet fluorophore generates red fluorescence when excited at 550-590 nm.

Molecule: CCCC(=O)Nc1ncnc2c1ncn2[C@@H]1O[C@@H]2COP(=O)(O)O[C@H]2[C@H]1OC(=O)CCC [dB-cAMP, dybutyril cAMP, reference compound]
inhibition of U87MG colony formation in soft agar (efficacy) (U87MG cells [1]; 500 μg/ml dB-cAMP, positive control): ~65%

B1: CIBP4: IGFBP-4 C-terminal fragment (aas 157-258, SEQ ID No. 6) with StreptagII-octahistidine tag (protein)
chain: MLLLLLLLGLRLQLSLGIASKVNGAPREDARPVPQGSCQSELHRALERLAASQSRTHEDLYIIPIPNCDRNGNFHPKQCHPALDGQRGKCWCVDRKTGVKLPGGLEPKGELDCHQLADSFREVDPWSHPQFEKTGHHHHHHHHGGQ
modifications: StreptagII-octahistidine tag; C-terminal fragment of IGFBP-4
reduction of U87MG colony formation in soft agar (U87MG cells [2]): able to reduce U87MG colony formation
co-localization with lysosomes (Lysotracker) in HBEC [3]: Co-localization
average size of the tumors in each weight interval vs vehicle (U87MG cells on CAM; CAM): similar
increase in small size tumors (0-15 mg) vs vehicle (U87MG cells on CAM; CAM): three-fold
reduction in number of large size tumors (20-36 mg) vs vehicle (U87MG cells on CAM; CAM): 3 fold
shift of tumor weight frequency distribution towards smaller tumors vs vehicle (U87MG cells on CAM; CAM, intervals 0-15, 15-20, 20-36 mg): ~3 fold
reduction of growth of U87MG cells on CAM (tumor weight) vs vehicle (U87MG cells on CAM; CIBP4 250 ng/ml as printed, applied days 11-14, weighed day 17, p<0.005): 20-25%
inhibition of angiogenesis (CLT formation by HBEC in Matrigel) ([4]; stimuli U87MG CM, VEGF, IGF-1, bFGF, overnight): reduction in CLT formation
inhibition of U87MG colony formation in soft agar (efficacy) (U87MG cells [1]; 20 nM): ~50%
inhibition of angiogenic response induced by U87MG conditioned media and growth factors (bFGF, VEGF, IGF-1) [5]: can inhibit angiogenic response

inhibition of intracellular cathepsin B activity induced by IGF-1 (cathepsin B; IGF-1 (150 ng/ml)): completely inhibit
inhibition of intracellular cathepsin B activity induced by U87MG CM (cathepsin B; U87MG CM): did not inhibit
inhibition of intracellular cathepsin B activity induced by VEGF (cathepsin B; VEGF (20 ng/ml)): completely inhibit
inhibition of intracellular cathepsin B activity induced by bFGF (cathepsin B; bFGF (20 ng/ml)): did not inhibit
B2: IBP2: recombinant full-length IGFBP-2 (aas 1-328, SEQ ID No. 3); produced at BRI-NRC and purchased from R&D systems (protein)
chain: MLPRVGCPALPLPPPPLLPLLPLLLLLLGASGGGGGARAEVLFRCPPCTPERLAACGPPPVAPPAAVAAVAGGARMPCAELVREPGCGCCSVCARLEGEACGVYTPRCGQGLRCYPHPGSELPLQALVMGEGTCEKRRDAEYGASPEQVADNGDDHSEGGLVENHVDSTMNMLGGGGSAGRKPLKSGMKELAVFREKVTEQHRQMGKGGKHHLGLEEPKKLRPPPARTPCQQELDQVLERISTMRLPDERGPLEHLYSLHIPNCDKHGLYNLKQCKMSLNGQRGECWCVNPNTGKLIQGAPTIRGDPECHLFYNEQQEARGVHTQRMQGSGWSHPQFEKTGHHHHHHHHGGQ
modifications: human
notes: produced at BRI-NRC and purchased from R&D systems
inhibition of angiogenic response induced by IGF-1 ([4]; HBEC on Matrigel, IGF-1 (150 ng/ml)): completely inhibit
inhibition of angiogenic response induced by U87MG CM ([4]; HBEC on Matrigel, U87MG CM): did not inhibit
inhibition of angiogenic response induced by VEGF ([4]; HBEC on Matrigel, VEGF (20 ng/ml)): completely inhibit
inhibition of angiogenic response induced by bFGF ([4]; HBEC on Matrigel, bFGF (20 ng/ml)): did not inhibit

B3: CIBP1: IGFBP-1 C-terminal domain (aa 170-259, SEQ ID No. 2) with octahistidine tag (protein)
chain: MGELLLLLLLGLRLQLSLGIASKKWKEPCRIELYRVVESLAKAQETSGEEISKFYLPNCNKNGFYHSRQCETSMDGEAGLCWCVYPWNGKRIPGSPEIRGDPNCQIYFNVQASSGSSTGHHHHHHHHG
modifications: octahistidine tag; C-terminal fragment of IGFBP-1
inhibition of U87MG colony formation in soft agar (efficacy) (U87MG cells [1]; 20 nM): ~25%

B4: CIBP6: IGFBP-6 C-terminal fragment (aas 151-240, SEQ ID No. 10) with octahistidine tag (protein)
chain: MGELLLLLLLGLRLQLSLGIARNSAGVQDTEMGPCRRHLDSVLQQLQTEVYRGAQTLYVPNCDHRGFYRKRQCRSSQGQRRGPCWCVDRMGKSLPGSPDGNGSSSCPTGSSGSSTGHHHHHHHHG
modifications: octahistidine tag; C-terminal fragment of IGFBP-6
inhibition of U87MG colony formation in soft agar (efficacy) (U87MG cells [1]; 20 nM): ~25%

B5: IGFBP-4: recombinant full-length IGFBP-4 (SEQ ID No. 5) with StreptagII-octahistidine tag (protein)
chain: MLPLCLVAALLLAAGPGPSLGDEAIHCPPCSEEKLARCRPPVGCEELVREPGCGCCATCALGLGMPCGVYTPRCGSGLRCYPPRGVEKPLHTLMHGQGVCMELAEIEAIQESLQPSDKDEGDHPNNSFSPCSAHDRRCLQKHFAKIRDRSTSGGKMKVNGAPREDARPVPQGSCQSELHRALERLAASQSRTHEDLYIIPIPNCDRNGNFHPKQCHPALDGQRGKCWCVDRKTGVKLPGGLEPKGELDCHQLADSFREVDPWSHPQFEKTGHHHHHHHHGGQ
modifications: StreptagII-octahistidine tag; human
reduction of U87MG colony formation in soft agar (U87MG cells [2]): able to reduce U87MG colony formation
